Reference: article PMC6565636, “Rif1 promotes association of G-quadruplex (G4) by its specific G4 binding and oligomerization activities”

Tests used:
[1] = biological target: T1, Rif1 full-length (His6-Rif1-FLAG3) (Schizosaccharomyces pombe (fission …, UniProt Q96UP3 1-1400)); assay: EMSA; KCl; text: poor binder; EMSA with oligos heat-denatured and renatured in 50 mM KCl/40% PEG200 (Fig 5: 50 mM Tris-HCl pH 7.5 with KCl, NaCl or none); gel shift buffer 40 mM Hepes-KOH pH 7.6, 50 mM KCl, 1 mM EDTA, 10% glycerol, 0.01% Triton X-100; pull-down 30 min at room temperature; +++/++/+ = >50/>16/>6% shift at 1 nM Rif1; conditions: protein: recombinant; tags: N-term His6, C-term FLAG3; label: 32P; hybrid G4
T1 sequence: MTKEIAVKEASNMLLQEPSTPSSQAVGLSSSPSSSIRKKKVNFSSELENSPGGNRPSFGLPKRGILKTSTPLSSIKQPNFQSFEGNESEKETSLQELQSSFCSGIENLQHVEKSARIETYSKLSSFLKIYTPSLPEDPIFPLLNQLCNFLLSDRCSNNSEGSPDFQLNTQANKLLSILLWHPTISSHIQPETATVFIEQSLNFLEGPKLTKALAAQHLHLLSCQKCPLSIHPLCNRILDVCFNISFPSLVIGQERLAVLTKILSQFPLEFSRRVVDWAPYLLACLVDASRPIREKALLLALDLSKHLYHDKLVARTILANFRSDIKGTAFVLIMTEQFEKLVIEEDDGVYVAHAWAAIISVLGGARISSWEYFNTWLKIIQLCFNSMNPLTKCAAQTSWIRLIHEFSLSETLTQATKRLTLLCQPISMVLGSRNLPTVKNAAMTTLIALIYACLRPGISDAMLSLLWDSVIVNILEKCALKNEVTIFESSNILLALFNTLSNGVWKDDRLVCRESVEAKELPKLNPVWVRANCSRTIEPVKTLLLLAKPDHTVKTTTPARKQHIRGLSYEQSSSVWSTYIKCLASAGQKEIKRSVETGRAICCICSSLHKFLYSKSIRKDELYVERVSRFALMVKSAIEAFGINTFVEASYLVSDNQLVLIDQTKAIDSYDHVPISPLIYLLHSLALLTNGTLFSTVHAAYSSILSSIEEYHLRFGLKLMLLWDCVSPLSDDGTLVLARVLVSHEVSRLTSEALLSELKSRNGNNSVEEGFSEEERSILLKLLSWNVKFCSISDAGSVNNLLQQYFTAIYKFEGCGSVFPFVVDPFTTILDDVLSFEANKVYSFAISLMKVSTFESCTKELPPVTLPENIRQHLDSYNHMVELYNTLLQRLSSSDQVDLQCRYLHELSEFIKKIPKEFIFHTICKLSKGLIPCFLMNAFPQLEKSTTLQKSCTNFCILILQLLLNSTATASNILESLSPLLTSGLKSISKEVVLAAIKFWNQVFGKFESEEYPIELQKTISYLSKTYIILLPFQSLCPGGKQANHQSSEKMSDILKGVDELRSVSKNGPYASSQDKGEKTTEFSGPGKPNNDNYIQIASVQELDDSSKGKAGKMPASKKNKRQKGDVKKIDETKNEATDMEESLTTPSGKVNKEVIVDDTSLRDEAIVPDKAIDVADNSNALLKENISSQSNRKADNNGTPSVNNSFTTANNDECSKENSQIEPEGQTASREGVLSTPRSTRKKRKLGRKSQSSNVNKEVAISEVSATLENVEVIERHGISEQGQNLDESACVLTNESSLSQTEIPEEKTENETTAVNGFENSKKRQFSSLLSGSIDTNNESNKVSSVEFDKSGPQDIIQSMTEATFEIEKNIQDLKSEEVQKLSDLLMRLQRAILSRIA

[2] = biological target: T1, Rif1 full-length (His6-Rif1-FLAG3); assay: EMSA; EMSA with oligos heat-denatured and renatured in 50 mM KCl/40% PEG200 (Fig 5: 50 mM Tris-HCl pH 7.5 with KCl, NaCl or none); gel shift buffer 40 mM Hepes-KOH pH 7.6, 50 mM KCl, 1 mM EDTA, 10% glycerol, 0.01% Triton X-100; pull-down 30 min at room temperature; +++/++/+ = >50/>16/>6% shift at 1 nM Rif1; conditions: protein: recombinant; tags: N-term His6, C-term FLAG3; label: 32P
[3] = biological target: T1, Rif1 full-length (His6-Rif1-FLAG3); assay: EMSA; KCl; text: not bound very efficiently; EMSA with oligos heat-denatured and renatured in 50 mM KCl/40% PEG200 (Fig 5: 50 mM Tris-HCl pH 7.5 with KCl, NaCl or none); gel shift buffer 40 mM Hepes-KOH pH 7.6, 50 mM KCl, 1 mM EDTA, 10% glycerol, 0.01% Triton X-100; pull-down 30 min at room temperature; +++/++/+ = >50/>16/>6% shift at 1 nM Rif1; conditions: protein: recombinant; tags: N-term His6, C-term FLAG3; label: 32P; hybrid G4
Taz1 = biological target: T2, Taz1 (Schizosaccharomyces pombe (fission …, UniProt P79005 1-663)); assay: EMSA; EMSA with oligos heat-denatured and renatured in 50 mM KCl/40% PEG200 (Fig 5: 50 mM Tris-HCl pH 7.5 with KCl, NaCl or none); gel shift buffer 40 mM Hepes-KOH pH 7.6, 50 mM KCl, 1 mM EDTA, 10% glycerol, 0.01% Triton X-100; pull-down 30 min at room temperature; +++/++/+ = >50/>16/>6% shift at 1 nM Rif1; conditions: protein: recombinant; tags: N-term His6, C-term FLAG3; chain copies: 2; label: 32P; blunt
T2 sequence: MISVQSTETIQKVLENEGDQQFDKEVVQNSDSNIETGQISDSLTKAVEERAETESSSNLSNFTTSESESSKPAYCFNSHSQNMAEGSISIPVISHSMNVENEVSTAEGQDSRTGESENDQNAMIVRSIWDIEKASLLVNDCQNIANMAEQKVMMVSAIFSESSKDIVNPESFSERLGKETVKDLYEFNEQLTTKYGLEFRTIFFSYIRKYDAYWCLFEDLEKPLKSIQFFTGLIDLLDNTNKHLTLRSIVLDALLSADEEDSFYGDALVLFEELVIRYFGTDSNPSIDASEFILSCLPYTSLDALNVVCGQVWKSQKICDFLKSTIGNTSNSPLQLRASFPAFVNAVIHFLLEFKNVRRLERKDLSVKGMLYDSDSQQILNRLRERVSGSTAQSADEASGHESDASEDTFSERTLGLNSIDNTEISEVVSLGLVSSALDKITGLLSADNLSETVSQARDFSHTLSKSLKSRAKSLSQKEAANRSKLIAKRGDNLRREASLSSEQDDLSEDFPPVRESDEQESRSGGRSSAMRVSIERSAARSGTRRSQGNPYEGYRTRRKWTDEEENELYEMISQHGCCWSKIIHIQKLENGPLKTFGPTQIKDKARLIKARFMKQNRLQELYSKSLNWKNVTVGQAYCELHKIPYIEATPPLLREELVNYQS

B1: Htelo2 (structured_DNA)
DNA: TAGGGTTAGGGTTAGGGTTAGGGTT
- binding result [1]: no binding

B2: G10 (structured_DNA)
DNA: GGGGGGGGGG
- binding result [2]: binds

B3: Htelo1 (structured_DNA)
DNA: TAGGGTTAGGGTTAGGGTTAGGG
- binding result [3]: no binding

B4: Taz1BS (dsDNA)
DNA 1: TTACAGGTTACAGGTTACAGG
DNA 2: CCTGTAACCTGTAACCTGTAA
- Kd (Taz1): ~30 nM
